According to paper PMC3285215, “The TAL Effector PthA4 Interacts with Nuclear Factors Involved in RNA-Dependent Processes Including a HMG Protein That Selectively Binds Poly(U) RNA”:

Tests used:
[1] = molecular target: T1, CsHMG (Citrus sinensis, UniProt G9I829 1-165); assay: EMSA; 0.5 and 1.0 ug protein; conditions: protein: recombinant; tags: 6xHis; label: 5' 32P (direct EMSA)
[2] = molecular target: T2, CsHMGΔNΔC (Citrus sinensis, UniProt G9I829 56-125); assay: competition; 1-30x vs poly(U) probe; conditions: protein: recombinant; label: 5' 32P (direct EMSA)
T2 sequence (G9I829 entry or part of it mutant): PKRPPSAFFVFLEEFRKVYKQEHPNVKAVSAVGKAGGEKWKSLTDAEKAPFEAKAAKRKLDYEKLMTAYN

[3] = molecular target: T2, CsHMGΔNΔC; assay: EMSA; conditions: protein: recombinant; label: 5' 32P
[4] = molecular target: CsHMGΔC (Citrus sinensis, UniProt G9I829 1-125); assay: EMSA; conditions: protein: recombinant; label: 5' 32P
Chain of CsHMGΔC (G9I829 entry or part of it mutant): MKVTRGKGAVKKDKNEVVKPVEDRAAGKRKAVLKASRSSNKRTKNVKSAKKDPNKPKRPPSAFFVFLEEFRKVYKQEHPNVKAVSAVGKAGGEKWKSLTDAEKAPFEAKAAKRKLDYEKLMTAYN

[5] = molecular target: CsHMGΔN (Citrus sinensis, UniProt G9I829 56-165); assay: EMSA; conditions: protein: recombinant; label: 5' 32P
Chain of CsHMGΔN (G9I829 entry or part of it mutant): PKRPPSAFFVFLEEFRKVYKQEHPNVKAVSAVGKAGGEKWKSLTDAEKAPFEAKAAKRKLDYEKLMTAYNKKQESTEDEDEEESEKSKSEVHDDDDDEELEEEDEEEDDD

[6] = molecular target: T1, CsHMG; assay: competition; 1-30x cold poly(U); conditions: protein: recombinant; tags: 6xHis; label: 5' 32P
[7] = molecular target: PthA4 RD (Xanthomonas citri, UniProt A0AAI8ETU3 289-885); assay: EMSA; 5 mM Mg2+; […], pH 7.5 ([…], pH 7.5, 20 min; conditions: protein: recombinant; label: 5' 32P
[8] = molecular target: PthA4 (Xanthomonas citri, UniProt A0AAI8ETU3 1-1163); assay: EMSA; 5 mM Mg2+; […], pH 7.5 ([…], pH 7.5, 20 min; conditions: protein: recombinant; tags: 6xHis; label: 5' 32P
[9] = molecular target: PthA4;CsHMG (Xanthomonas citri;Citrus sinensis, UniProt A0AAI8ETU3;G9I829 1-1163;1-165, |); assay: EMSA; ternary complex suggested by higher MW bands; […], pH 7.5 ([…], pH 7.5, 20 min; conditions: protein: recombinant;recombinant; tags: 6xHis;6xHis; label: 5' 32P

UUAUUAUUUAUUUAUUUAUU (ssRNA) [AU-rich RNA]: no binding [1]; no binding [2].

UUUUUUUUUUUUUUUUUUUU (ssRNA) [poly(U) U-20]: binds [3]; binds [4]; binds [5]. UUUUUUUUUUUUUUUUUUUU (ssRNA) [poly(U) U-20]: binds [6]; binds [7]; binds [8]. UUUUUUUUUUUUUUUUUUUU (ssRNA) [poly(U) U-20]: binds [9].
